Results published in paper PMC9835603, “A conserved SH3-like fold in diverse putative proteins tetramerizes into an oxidoreductase providing an antimicrobial resistance phenotype” (Philosophical Transactions of the Royal Society B: …, 2023).
Several values for one entry are separate records, joined by “and”; a condition that tells them apart may be missing. Equal values may be shown once. Read-outs that look alike come from different tables or passages of the source.

Experiments:
[1] = target: T1, DfrB-H5 (Methylobacterium pseudosasicola, UniProt A0A1I4V6W3); test: dihydrofolate reductase activity assay at […] nm with purified enzyme; Ki from IC50 by Cheng-Prusoff; type: biochemical
T1 construct: gene SAMN05192568_10896; full-length 365-residue protein, N-terminal His6 tag

[2] = system: NC(=O)C1=CN([C@@H]2O[C@H](COP(=O)(O)OP(=O)(O)OC[C@H]3O[C@@H](n4cnc5c(N)ncnc54)[C@H](OP(=O)(O)O)[C@@H]3O)[C@@H](O)[C@H]2O)C=CC1; test: steady-state kinetics (KM) with purified enzyme; type: biochemical, Escherichia coli; conditions: varied: cofactor
[3] = target: DfrB-H5 (distant DfrB homologue from Methylobacterium pseudosasicola) (Methylobacterium pseudosasicola); test: negative-stain electron microscopy; purified protein from a single gel filtration peak, 40 ng/ul, uranyl formate stain, two-dimensional classification
[4] = target: DfrB-H5 (distant DfrB homologue from Methylobacterium pseudosasicola) (Methylobacterium pseudosasicola); test: as above; remark: listed apart in the source
[5] = target: His6-DfrB1 (type B dihydrofolate reductase DfrB1); test: SEC-MALS; SEC-MALLS; Superdex 200 10/300 GL for DfrB-H5, Superdex 75 10/300 GL for DfrB1, 0.4 ml/min
[6] = target: His6-DfrB1 (type B dihydrofolate reductase DfrB1); test: negative-stain electron microscopy; purified protein from a single gel filtration peak, 40 ng/ul, uranyl formate stain, two-dimensional classification

## O=C(O)c1ccc2[nH]c(-c3ccc(OCCCCCOc4ccc(-c5nc6cc(C(=O)O)ccc6[nH]5)cc4)cc3)nc2c1 [compound 1, 2,2′-[1,5-pentanediylbis(4-oxyphenylene)]-bis-1H-benzimidazole-5-carboxylic acid]
[1]; read-out: 1 / Ki
  Ki: 12 ± 6 µM

## CC1(C)Nc2nc(N)[nH]c(=O)c2N=C1C(=O)NCCN1CCC(SC[C@H]2O[C@@H](n3cnc4c(N)ncnc43)[C@H](O)[C@@H]2O)CC1 [compound 2, 2-amino-N-(2-(4-((((2S,3S,4R,5R)-5-(6-amino-9H-purin-9-yl)-3,4-dihydroxytetrahydrofuran-2-yl)methyl)thio)piperidin-1-yl)ethyl)-7,7-dimethyl-4-oxo-3,4,7,8-tetrahydropteridine-6-carboxamide]
[1]; read-out: 2 / Ki
  Ki: 30 ± 10 µM

## DfrB1 (Escherichia coli; Y69L)
[2]
  Km: 170 ± 20 µM

## DfrB-H5 (distant DfrB homologue from Methylobacterium pseudosasicola) (enzyme)
[3]
  stoichiometry N: 2 and 3
[4]
  stoichiometry N: 4

## His6-DfrB1 (type B dihydrofolate reductase DfrB1) (enzyme)
[5]
  stoichiometry N: 4
[6]
  stoichiometry N: 4
